Values of other authors in US9241970B2, “Therapy for subarachnoid hemorrhage and ischemia” (NoNO Inc., priority 2011, dated 2016).

Target: binding of NMDAR2B to PSD-95 (Homo sapiens, UniProt P78352)
Details: reported by Bach

Sequence of binding of NMDAR2B to PSD-95 (P78352 whole entry): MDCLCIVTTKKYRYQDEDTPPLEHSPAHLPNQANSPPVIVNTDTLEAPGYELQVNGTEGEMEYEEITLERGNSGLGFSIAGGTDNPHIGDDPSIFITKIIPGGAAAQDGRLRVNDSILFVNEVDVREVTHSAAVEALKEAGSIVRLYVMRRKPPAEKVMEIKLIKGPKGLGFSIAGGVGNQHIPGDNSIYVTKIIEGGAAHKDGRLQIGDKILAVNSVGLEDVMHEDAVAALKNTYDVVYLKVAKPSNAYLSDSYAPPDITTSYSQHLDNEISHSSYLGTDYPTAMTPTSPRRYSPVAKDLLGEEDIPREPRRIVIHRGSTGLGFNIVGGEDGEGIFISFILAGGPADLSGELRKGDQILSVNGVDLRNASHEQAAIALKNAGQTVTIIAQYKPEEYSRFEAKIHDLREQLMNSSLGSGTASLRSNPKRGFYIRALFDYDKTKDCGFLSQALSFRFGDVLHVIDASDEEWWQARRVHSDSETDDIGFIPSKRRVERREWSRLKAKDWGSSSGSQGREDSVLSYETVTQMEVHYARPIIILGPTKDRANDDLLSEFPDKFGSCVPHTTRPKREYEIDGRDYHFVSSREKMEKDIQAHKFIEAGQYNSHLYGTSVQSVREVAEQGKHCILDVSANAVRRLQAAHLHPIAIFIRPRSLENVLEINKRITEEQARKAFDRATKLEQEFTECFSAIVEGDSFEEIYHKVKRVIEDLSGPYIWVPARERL

**Q.** For IESDV (listed as Homo sapiens), which “inhibition of binding of NMDAR2B to PSD-95” value is on record?
**A.** effective in inhibiting binding of NMDAR2B to PSD-95
